According to patent US20250263475A1 (AGENCY FOR SCIENCE TECHNOLOGY AND RESEARCH, published 2025):
Ends that are not written are not given here. * marks the point of attachment. Biotin = O=C1N[C@H]2[C@H](CS[C@H]2CCCCC(=O)*)N1

Key:
SEQ ID NO 141 = biological target: T1, SEQ ID NO 141; assay: phage display: peptide captured by the antibody (FIG. 8B taken as clone 3G11 by paragraph 561)
T1 peptide: FSVPFDRIQETP

SEQ ID NO 139 = biological target: T2, SEQ ID NO 139; assay: as above
T2 peptide: FSVPSGHYIRAN

SEQ ID NO 138 = biological target: T3, SEQ ID NO 138; assay: as above
T3 peptide: WSVPPGRHIHYS

SEQ ID NO 140 = biological target: T4, SEQ ID NO 140; assay: as above
T4 peptide: FSVRPFHYAQDN

SEQ ID NO 137 = biological target: T5, SEQ ID NO 137; assay: as above
T5 peptide: GPSCHYCFTGLP

SEQ ID NO 136 = biological target: T6, SEQ ID NO 136; assay: as above
T6 peptide: SSTHYSWSLMDA

SEQ ID NO 142 = biological target: T7, SEQ ID NO 142; assay: as above
T7 peptide: FSVRPYDPQIEN

[1] = biological target: T8, mouse p53 wild-type full length protein (mouse, UniProt P02340 1-390); assay: ELISA on coated full-length protein
T8 construct: mature; Full length protein in ELISA; also called wildtype mouse p53; p53 of wild-type MEFs

FSVRPFHYAQDN = biological target: T9, FSVRPFHYAQDN; assay: phage display, random 12-mers on M13 pIII, panning on the antibody
T9 construct: also called line 8 under 3G11
T9 peptide: FSVRPFHYAQDN

FSVRPYDPQIEN = biological target: T10, FSVRPYDPQIEN; assay: as above
T10 construct: also called line 9 under 3G11
T10 peptide: FSVRPYDPQIEN

FSVPSGHYIRAN = biological target: T11, FSVPSGHYIRAN; assay: as above
T11 construct: also called line 10 under 3G11
T11 peptide: FSVPSGHYIRAN

SSTHYSWSLMDA = biological target: T12, SSTHYSWSLMDA; assay: as above
T12 construct: also called line 1 under 3G11
T12 peptide: SSTHYSWSLMDA

GPSCHYCFTGLP = biological target: T13, GPSCHYCFTGLP; assay: as above
T13 construct: also called lines 2 and 3 under 3G11
T13 peptide: GPSCHYCFTGLP

WSVPPGRHIHYS = biological target: T14, WSVPPGRHIHYS; assay: as above
T14 construct: also called lines 4 and 5 under 3G11
T14 peptide: WSVPPGRHIHYS

FSVPFDRIQETP = biological target: T15, FSVPFDRIQETP; assay: as above
T15 construct: also called line 7 under 3G11
T15 peptide: FSVPFDRIQETP

SEQ ID NO 113 = biological target: T16, SEQ ID NO 113; assay: phage display: peptide captured by the antibody from an M13 random 12-mer library (FIG. 7C = clone 13E4 by paragraph 523)
T16 peptide: GKTYSYHMQLYT

SEQ ID NO 115 = biological target: T17, SEQ ID NO 115; assay: as above
T17 peptide: YNTFPYHLGYTL

SEQ ID NO 116 = biological target: T18, SEQ ID NO 116; assay: as above
T18 peptide: DNASSSKVHHGH

SEQ ID NO 117 = biological target: T19, SEQ ID NO 117; assay: as above
T19 peptide: TFVHGNTWTIVN

SEQ ID NO 114 = biological target: T20, SEQ ID NO 114; assay: as above
T20 peptide: YHVGGILGRLFM

DNASSSKVHHGH = biological target: T21, DNASSSKVHHGH; assay: phage display, random 12-mers on M13 pIII, panning on the antibody
T21 construct: also called line 2 under 13E4
T21 peptide: DNASSSKVHHGH

TFVHGNTWTIVN = biological target: T22, TFVHGNTWTIVN; assay: as above
T22 construct: also called line 1 under 13E4
T22 peptide: TFVHGNTWTIVN

YNTFPYHLGYTL = biological target: T23, YNTFPYHLGYTL; assay: as above
T23 construct: also called line 5 under 13E4
T23 peptide: YNTFPYHLGYTL

GKTYSYHMQLYT = biological target: T24, GKTYSYHMQLYT; assay: as above
T24 construct: also called line 4 under 13E4
T24 peptide: GKTYSYHMQLYT

YHVGGILGRLFM = biological target: T25, YHVGGILGRLFM; assay: as above
T25 construct: also called line 3 under 13E4
T25 peptide: YHVGGILGRLFM

267 RNSFEVHVCACPG 279 = biological target: T26, 267 RNSFEVHVCACPG 279 (not fully specified; cysteine pairing not given here); assay: ELISA on biotinylated 13-mer on streptavidin plate, antibody 1 ug/ml, O.D. 650 nm
T26 construct: also called unsubstituted 13-mer of the alanine scan on R273H
T26 peptide: Biotin-RNSFEVHVCACPG

SEQ ID NO 105 = biological target: T27, SEQ ID NO 105; assay: phage display: peptide captured by the antibody from an M13 random 12-mer library (FIG. 7B = clone 4H2 by paragraph 523)
T27 peptide: SRPADHWPRHNE

SEQ ID NO 106 = biological target: T28, SEQ ID NO 106; assay: as above
T28 peptide: SSRPMAHWPIKV

SEQ ID NO 108 = biological target: T29, SEQ ID NO 108; assay: as above
T29 peptide: SNTPHWPGRPGI

SEQ ID NO 109 = biological target: T30, SEQ ID NO 109; assay: as above
T30 peptide: INTPRDWAYGGL

SEQ ID NO 104 = biological target: T31, SEQ ID NO 104; assay: as above
T31 peptide: ELWQNVRPFLWV

[2] = biological target: T32, human p53 wild-type full length protein (human, UniProt P04637 1-393); assay: ELISA on coated full-length protein
T32 construct: Full length recombinant protein in ELISA; expressed in transfected H1299 cells or endogenous in MCF7/A549 cells and tumour samples in blots, IP, IF and IHC; also called wildtype p53; WT HP53

SNTPHWPGRPGI = biological target: T33, SNTPHWPGRPGI; assay: phage display, random 12-mers on M13 pIII, panning on the antibody
T33 construct: also called line 5 under 4H2
T33 peptide: SNTPHWPGRPGI

SRPADHWPRHNE = biological target: T34, SRPADHWPRHNE; assay: as above
T34 construct: also called line 2 under 4H2
T34 peptide: SRPADHWPRHNE

ELWQNVRPFLWV = biological target: T35, ELWQNVRPFLWV; assay: as above
T35 construct: also called line 1 under 4H2
T35 peptide: ELWQNVRPFLWV

SSRPMAHWPIKV = biological target: T36, SSRPMAHWPIKV; assay: as above
T36 construct: also called line 3 under 4H2
T36 peptide: SSRPMAHWPIKV

B1: anti-R248Q p53 antibody clone 3G11 (antibody, V domains shown)
VH: DVQLQQSGPELVKPGASVKMSCKASGYTFTDYYVKWVKQSPGQSLEWIGDIHPKNGGTNYNQKFKGKAALTVDKSSSTAYMQLNSLTSEDSAVYFCAKMGGYDDYWGQGTTLTVSS
VL: not shown
SEQ ID NO 141
  binding result: binds
SEQ ID NO 139
  binding result: binds
SEQ ID NO 138
  binding result: binds
SEQ ID NO 140
  binding result: binds
SEQ ID NO 137
  binding result: binds
SEQ ID NO 136
  binding result: binds
SEQ ID NO 142
  binding result: binds
[1]
  binding result: no binding (tested: neat supernatant)
FSVRPFHYAQDN
  binding result: binds
FSVRPYDPQIEN
  binding result: binds
FSVPSGHYIRAN
  binding result: binds
SSTHYSWSLMDA
  binding result: binds
GPSCHYCFTGLP
  binding result: binds
WSVPPGRHIHYS
  binding result: binds
FSVPFDRIQETP
  binding result: binds

B2: mouse human chimeric anti-R248Q p53 antibody clone MH 3G11 (antibody, V domains shown)
VH: DVQLQQSGPELVKPGASVKMSCKASGYTFTDYYVKWVKQSPGQSLEWIGDIHPKNGGTNYNQKFKGKAALTVDKSSSTAYMQLNSLTSEDSAVYFCAKMGGYDDYWGQGTTLTVSS
VL: not shown
notes: also called chimeric 3G11
[1]
  binding result: no binding (tested: 1 ng/µl)

B3: anti-R273H p53 antibody clone 13E4 (antibody, V domains shown)
VH: EVQLLETGGDLVTPGGSLKLSCAASGFSFSDYYMYWVRQTPEKRLEWVATISVGGTYTFYSDNVKGRFVISRDNARKNLHLEMNSLKSEDAAMYYCVRDGNDGKFLGYWGQGTFVTVTV
VL: DIVMTQSPLSLPVNLGDQVSLSCRSSQSIVHNNGDTYLEWYLQKPGQSPKLLIYKVSNRFSGVPDRFSGSGSGTDFTLKISRVEAEDLGIYYCFQGSHLPLTFGSGTKLELK
notes: Mouse monoclonal antibody from hybridoma; also called 13E4 mAb
SEQ ID NO 113
  binding result: binds
SEQ ID NO 115
  binding result: binds
SEQ ID NO 116
  binding result: binds
SEQ ID NO 117
  binding result: binds
SEQ ID NO 114
  binding result: binds
DNASSSKVHHGH
  binding result: binds
TFVHGNTWTIVN
  binding result: binds
YNTFPYHLGYTL
  binding result: binds
GKTYSYHMQLYT
  binding result: binds
YHVGGILGRLFM
  binding result: binds
267 RNSFEVHVCACPG 279
  binding result: binds

B4: anti-R248Q p53 antibody clone 4H2 (antibody, V domains shown)
VH: QVQLKQSGPELVKPGASVKMSCKASGYTFTDYYLKWVRQSHGKSLEWIGDIDPKNGGTNYNQKFKGKATLTVDKSSSTAYMQLNSLTSEDSAVYYCAKQGGFDDYWGQGTTLTVSS
VL: not shown
notes: Mouse monoclonal antibody from hybridoma
SEQ ID NO 105
  binding result: binds
SEQ ID NO 106
  binding result: binds
SEQ ID NO 108
  binding result: binds
SEQ ID NO 109
  binding result: binds
SEQ ID NO 104
  binding result: binds
[2]
  binding result: no binding (tested: neat supernatant)
[1]
  binding result: no binding (tested: neat supernatant)
SNTPHWPGRPGI
  binding result: binds
SRPADHWPRHNE
  binding result: binds
ELWQNVRPFLWV
  binding result: binds
SSRPMAHWPIKV
  binding result: binds

B5: mouse human chimeric anti-R248Q p53 antibody clone MH 4H2 (antibody, V domains shown)
VH: QVQLKQSGPELVKPGASVKMSCKASGYTFTDYYLKWVRQSHGKSLEWIGDIDPKNGGTNYNQKFKGKATLTVDKSSSTAYMQLNSLTSEDSAVYYCAKQGGFDDYWGQGTTLTVSS
VL: not shown
notes: also called chimeric 4H2
[1]
  binding result: no binding (tested: 1 ng/µl)
